Data on 15 proteins can be found in publication PMC5665175 (Immunity, 2017).

Data set [1] concerns the molecule itself. The experiment in a line: SDD-AGE.
Data set [2] deals with the molecule itself. The experiment in a line: X-ray diffraction from fibrils.
The data set “SEC” deals with the molecule itself. Description: SEC. In general terms: SEC sorts molecules by how far they enter the pores of the column.
Data set [3] concerns the molecule itself. Description: SDD-AGE. The source holds these as a separate data set.
Data set [4] deals with the molecule itself. Description: ThT fluorescence of amyloid polymerisation.

B1: 6xHis-Sumo-Imd(31-167) (domain or fragment, D. melanogaster, UniProt Q7K4Z4 31-167, looked up)
chain: AAPVDDNEPDNNNSGALALPSTAGTPTASSDLTESVLRELSDPNYNSMDVVHSANIPGTLSNVQTNNTMNVHSAQQQVVMNFSNANNLHFGSVYNFNQNLSACSSRKGSTSTAEESVASPDGKPRASATRKTVSIVA
As to B1, the binding result in “SDD-AGE [1]” was “binds”.

B2: 6xHis-Sumo-Imd(31-273) Δ76-109 (domain or fragment, D. melanogaster, UniProt Q7K4Z4 31-273, looked up)
chain: AAPVDDNEPDNNNSGALALPSTAGTPTASSDLTESVLRELSDPNYMNFSNANNLHFGSVYNFNQNLSACSSRKGSTSTAEESVASPDGKPRASATRKTVSIVAMMQSQEEPDVRLLDVVSTHLGEGWKQVMRDLGMSEGQIDQAIIDHQMHGNIREVIYQLLLQWIRSSADGVATVGRLTTLLWESQHRDCVQRMKLVWKALEKRKTNS
Consider B2, for which the binding result in “SDD-AGE [1]” is reported as “binds”.

B3: 6xHis-Sumo-Imd(31-273) Δ144-177 (domain or fragment, D. melanogaster, UniProt Q7K4Z4 31-273, looked up)
chain: AAPVDDNEPDNNNSGALALPSTAGTPTASSDLTESVLRELSDPNYNSMDVVHSANIPGTLSNVQTNNTMNVHSAQQQVVMNFSNANNLHFGSVYNFNQNLSACSSRKGSTSTARLLDVVSTHLGEGWKQVMRDLGMSEGQIDQAIIDHQMHGNIREVIYQLLLQWIRSSADGVATVGRLTTLLWESQHRDCVQRMKLVWKALEKRKTNS
For B3, in “SDD-AGE [1]”, the binding result is given as “binds”.

NVHSAQQQVVMNFSNANNLHFGSVYN (domain or fragment, D. melanogaster, UniProt Q7K4Z4 100-125, looked up) [6xHis-Sumo-Imd(100-125)]: the binding result in data set [2] is reported as “binds”.

Turning to ATQGIGSIALTNSTDVTFGDKHFYEGPVTIQQFLIDNRDKWK (domain or fragment, D. melanogaster, UniProt Q9GNK5 201-242, looked up) [6xHis-Sumo-PGRP-LC(201-242) WT], the binding result in “SEC” is reported as “binds”.

As to ATQGIGSIALTNSTAVTFGDKHFYEGPVTIQQFLIDNRDKWK (domain or fragment, D. melanogaster, UniProt Q9GNK5 201-242, looked up) [6xHis-Sumo-PGRP-LC(201-242) D215A], in “SDD-AGE [3]”, the binding result is listed as “binds”.

Regarding ATQGIGSIALTNSTDVTFGDKHFYAGPVTIQQFLIDNRDKWK (domain or fragment, D. melanogaster, UniProt Q9GNK5 201-242, looked up) [6xHis-Sumo-PGRP-LC(201-242) E225A], the binding result in “SDD-AGE [3]” is recorded as “binds”.

With DLMNSINSIQTLGNVNISNSTNVHIGNVTNINGNIQIIADGLTQNRRD (domain or fragment, D. melanogaster, UniProt Q9VXN9 80-127, looked up) [6xHis-Sumo-PGRP-LE(80-127) WT], the binding result in the data set “SDD-AGE [3]” is “binds”.

As for DLMNSINSIQTLGNVNASNSTNVHIGNVTNINGNIQIIADGLTQNRRD (domain or fragment, D. melanogaster, UniProt Q9VXN9 80-127, looked up) [6xHis-Sumo-PGRP-LE(80-127) I96A], the binding result in the data set “SDD-AGE [3]” is “binds”.

Take DLMNSINSIQTLGNVNISNSTNVHIGNVTNINGNIQAIADGLTQNRRD (domain or fragment, D. melanogaster, UniProt Q9VXN9 80-127, looked up) [6xHis-Sumo-PGRP-LE(80-127) I116A]: the binding result in “SDD-AGE [3]” is “binds”.

Take DLMNSINSIQTLGNVNISNSTNVHAGNVTNINGNIQIIADGLTQNRRD (domain or fragment, D. melanogaster, UniProt Q9VXN9 80-127, looked up) [6xHis-Sumo-PGRP-LE(80-127) I104A]: the binding result in the data set “SDD-AGE [3]” was “binds”.

On to DLMNSINSIQTLGNVNISNATNVHIGNVTNINGNIQIIADGLTQNRRD (domain or fragment, D. melanogaster, UniProt Q9VXN9 80-127, looked up) [6xHis-Sumo-PGRP-LE(80-127) S99A], for which the binding result in the data set “SDD-AGE [3]” was “binds”.

B4: 6xHis-Sumo-Imd(31-273) Δ114-121 (domain or fragment, D. melanogaster, UniProt Q7K4Z4 31-273, looked up)
chain: AAPVDDNEPDNNNSGALALPSTAGTPTASSDLTESVLRELSDPNYNSMDVVHSANIPGTLSNVQTNNTMNVHSAQQQVVMNFSSVYNFNQNLSACSSRKGSTSTAEESVASPDGKPRASATRKTVSIVAMMQSQEEPDVRLLDVVSTHLGEGWKQVMRDLGMSEGQIDQAIIDHQMHGNIREVIYQLLLQWIRSSADGVATVGRLTTLLWESQHRDCVQRMKLVWKALEKRKTNS
With B4, the binding result in “SDD-AGE [1]” is given as “binds”.

B5: 6xHis-Sumo-Imd(31-273) (domain or fragment, D. melanogaster, UniProt Q7K4Z4 31-273, looked up)
chain: AAPVDDNEPDNNNSGALALPSTAGTPTASSDLTESVLRELSDPNYNSMDVVHSANIPGTLSNVQTNNTMNVHSAQQQVVMNFSNANNLHFGSVYNFNQNLSACSSRKGSTSTAEESVASPDGKPRASATRKTVSIVAMMQSQEEPDVRLLDVVSTHLGEGWKQVMRDLGMSEGQIDQAIIDHQMHGNIREVIYQLLLQWIRSSADGVATVGRLTTLLWESQHRDCVQRMKLVWKALEKRKTNS
With B5, the binding result in the data set “SDD-AGE [1]” is “binds”.

B6: 6xHis-Sumo-Imd(3-273) (domain or fragment, D. melanogaster, UniProt Q7K4Z4 3-273, looked up)
chain: KLRNLLPTIFGGKEAQNPTPVEGRLEKDAAPVDDNEPDNNNSGALALPSTAGTPTASSDLTESVLRELSDPNYNSMDVVHSANIPGTLSNVQTNNTMNVHSAQQQVVMNFSNANNLHFGSVYNFNQNLSACSSRKGSTSTAEESVASPDGKPRASATRKTVSIVAMMQSQEEPDVRLLDVVSTHLGEGWKQVMRDLGMSEGQIDQAIIDHQMHGNIREVIYQLLLQWIRSSADGVATVGRLTTLLWESQHRDCVQRMKLVWKALEKRKTNS
With B6, the binding result in data set [4] was “binds”.
